{"source": "patent US20040248211A1", "about": "“ICAM-related protein” (priority 1992, published 2004)", "key": {"soluble ICAM-R": {"biological_target": "T1, soluble ICAM-R (Homo sapiens, UniProt P32942)", "T1 construct": "made in house; host or cells: Sf-9 insect cells, recombinant baculovirus (pBBIII.ICAM-Rt1), purified on Lentil Lectin Sepharose", "T1 sequence (P32942 30-485 limits assumed)": "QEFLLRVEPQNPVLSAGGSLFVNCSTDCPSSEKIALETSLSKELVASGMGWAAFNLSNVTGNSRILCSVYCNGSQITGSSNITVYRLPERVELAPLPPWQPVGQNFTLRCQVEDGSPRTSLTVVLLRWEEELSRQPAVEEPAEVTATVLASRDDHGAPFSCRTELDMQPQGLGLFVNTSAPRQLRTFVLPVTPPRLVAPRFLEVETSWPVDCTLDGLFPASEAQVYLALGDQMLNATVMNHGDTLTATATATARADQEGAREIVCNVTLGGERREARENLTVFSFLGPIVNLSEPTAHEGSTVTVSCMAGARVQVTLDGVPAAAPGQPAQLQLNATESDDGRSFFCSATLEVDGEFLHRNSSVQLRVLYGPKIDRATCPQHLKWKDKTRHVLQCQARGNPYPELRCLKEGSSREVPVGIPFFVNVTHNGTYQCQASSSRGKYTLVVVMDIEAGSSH", "experiment": "ELISA binding to soluble ICAM-R coated onto plastic", "settings": "serially diluted purified antibody; 50% maximal binding", "experimental": "Nine of the purified anti-ICAM-R monoclonal antibodies were diluted serially and assayed in an ELISA format for binding to a fixed amount of soluble ICAM-R (Example 9) coated onto plastic. The results of the assay are presented in Table 3 below wherein high affinity binding was defined as 50% maximal binding at a monoclonal antibody concentration of less than 1 μg/ml and low affinity binding was defined as 50% maximal binding at a monoclonal antibody concentration of greater than 1 μg/ml."}, "[1]": {"test_system": "binding of JY cells (CD18+) to recombinant soluble human ICAM-R", "experiment": "JY cell adhesion to recombinant soluble human ICAM-R", "format": "cell-based", "settings": "for Inhibition (%) of total CD18-dependent binding: antibody 10 μg/ml, PMA-treated JY cells, total = adhesion blocked by anti-CD18 60.3", "experimental": "The partially purified shICAM-R protein was assayed for binding to SKW3 cells that were pretreated with phorbol ester as described in Example 7 to activate LFA-1-dependent adhesion. The ICAM-R protein was coated onto 96-well Immulon 4 (Dynatech) plates after adjusting the lectin eluate to 25 mM carbonate pH 9.6 and incubated overnight at 4° C. The plates were washed two times with PBS, blocked for 30 minutes at 37° C. with 200 ul/well PBS, 1% BSA, and washed again with PBS before adding cells. SKW3 cells were washed in serum-free RPMI (Gibco), labelled with Calcein-AM (Molecular Probes), and stimulated with PMA. Cells were then added to the plates and incubated for 1 hour at 37° C. The plates were inverted in prewarmed PBS, 1% BSA and were incubated for 30 minutes. The plates were then removed and half of the contents of each well was aspriated. The plates were then scanned with a fluorescence microscope and an automated fluorescence reader.\nICAM-R specific monoclonal antibodies listed in Table 11 in Example 22 were tested for their ability to inhibit binding of JY cells (CD18^+) to recombinant soluble human ICAM-R. Adhesion assays were performed as described in Example 9. Cells were treated with PMA and antibodies were then added at a final concentration of 10 μg/ml. Data was collected from triplicate wells during three independent experiments. Total CD18-dependent binding was determined as the amount of adhesion blocked by a control anti-CD18 monoclonal antibody 60.3. The percentage of total CD18-dependent binding that was inhibited by each monoclonal antibody is shown below in Table 4 wherein the names assigned to monoclonal antibodies produced by each hybridoma are given and “ND” indicates the antibody was not tested. The monoclonal antibody names are used throughout the following examples instead of hybridoma designations."}, "human PBL": {"test_system": "human PBL", "experiment": "SEA-induced proliferation of PBL", "format": "cell-based", "settings": "for proliferation in response to SEA, plate-bound antibody: 3 days, 3H-thymidine"}, "Monocytes": {"test_system": "Monocytes", "experiment": "IL-8 release from monocytes", "format": "cell-based, human", "settings": "wells coated 10 μg/ml", "experimental": "Monocytes were isolated by elutriation from peripheral blood of normal donors. […] After blocking free sites, the cells were placed into the wells in medium. […] Those cells plated in wells treated with BSA plus or minus LPS were rounded and not spread. After 8 or 18 hours of incubation at 37° C., the medium was removed and assayed for IL-8 immunoreactivity. […] By 18 hours, IL-8 levels in media from ICR monoclonal antibody wells were much elevated over control levels. […] Similar experiments with monocytic cell lines (U937 and HL60) to determine if ICR monoclonal antibody can induce IL-8 release were conducted. U937 cells responded to each of the ICR monoclonal antibody treated wells by releasing IL-8 into the conditioned medium. […] No detectable morphological changes were detected with the U937 or HL60 cells."}, "PBMC": {"test_system": "PBMC", "experiment": "PBMC activation markers on immobilized antibody", "format": "cell-based, human", "settings": "immobilized antibody 10 μg/well; no other stimuli", "experimental": "Anti-ICAM-R monoclonal antibodies ICR-1.1 and ICR-4.2 were each tested for the ability to induce PMBC activation in the absence of other inducing stimuli. Monoclonal antibodies ICR-1.1 or ICR-4.2 (or control monoclonal antibodies) were added (10 μg/well in PBS) to individual wells of a 96-well flat bottom tissue culture plate and incubated for 3 hours at 37° C. in a 5% CO2 incubator. The plates were washed 3 times with sterile PBS to remove unbound antibody and freshly isolated PBMC were immediately added to a final concentration of 2×10^5 cells/well in a volume of 200 μl media. The plates were then incubated for either 1 or 3 days at which time the cells cultured in the presence of different antibodies were removed, washed as described above in PBS containing 0.01% sodium azide and 1% BSA (FACS buffer) and stained with either FITC (Becton Dickinson)-conjugated negative control antibodies or a panel of FITC-conjugated anti-CD69, anti-transferrin receptor and anti-IL-2 receptor antibodies. Results were obtained by FACScan analysis. […] However, while increased expression of these lymphocyte activation markers was observed after 1 and 3 days this increased expression was unaccompanied by increased cell size."}, "resting PBLs": {"test_system": "resting PBLs", "experiment": "T cell receptor induced tyrosine phosphorylation after pretreatment", "format": "cell-based, human", "experimental": "Briefly, resting PBLs were isolated and treated with ICR-1.1 or isotype matched control antibody as described above in Section I. After the cells were removed from antibody, they were washed one time in PBS, resuspended in PBS to a concentration of 1×10^6 cells/ml, and either treated or not treated with antisera to the T cell receptor (G19-4) for 2 minutes at 37° C. The cells were then spun down and lysed in boiling 2×SDS-sample buffer, boiled a further 5 minutes and resolved on 10% SDS-PAGE. Proteins were transferred to nitrocellulose and blotted with the 4G10 anti-phosphotyrosine antibody as described. […] This is consistent with the result that CD69 upregulation in these cells is also normal (Section L above), since CD69 expression requires PLC-gamma stimulated PKC activity and PLC-gamma activation requires tyrosine phosphorylation."}}, "data": [{"molecule": "ICR-8.1: anti-ICAM-R monoclonal antibody, IgG1, domain 1, ATCC HB 11232 (antibody, V domains shown) VH: EIQLQQTGPELVKPGASVKISCKASGYSFTDCIILWVKQSHGKGLEWIGKINPYFGTTTYNLKFKGKATLTVDKSSSTAHMQLNSLTSEDSAVYYCARKEAYPDAMDYWGQGTSVTVSS VL: DAVMTQTPLSLPVSLGDQASISCRSSQSLVHSNGDTYLHWYLQKPGQSPQLLIYKVSNRFSGVPDRFSGSGSGTDFTLKLSRVEAEDLGVYFCSQSTHVPYTFGGGTKLEIK", "values": [{"measurement": "Affinity", "setting": "soluble ICAM-R", "result": "High (50% maximal binding at a monoclonal antibody concentration of less than 1 μg/ml)"}, {"measurement": "Blockade of Adhesion of JY Cells to Soluble ICAM-R", "setting": "[1]", "result": "YES"}, {"measurement": "Inhibition (%) of total CD18-dependent binding", "setting": "[1]", "result": 75, "unit": "%"}, {"measurement": "Blockade of Lymphocyte Activation SEA", "setting": "human PBL", "result": "YES"}, {"measurement": "proliferation in response to SEA, plate-bound antibody", "setting": "human PBL", "result": "significantly inhibited proliferation"}, {"measurement": "IL-8 level at 18 hours over the level at the 8 hour time point", "setting": "Monocytes", "result": "two times"}]}, {"molecule": "ICR-1.1: anti-ICAM-R monoclonal antibody, IgG2a, domain 1, ATCC HB 11053 (antibody, V domains shown) VH: QVQLQQSGAELAKPGASVKMSCKASGYTFTVYWMHWVKQRPGQGLEWIGYINPNTDYTEYNQRFQDKATLTADKSSSTAYMQLSSLTSEDSAVYYCARWGGNSYGLDYWGQGTSVTVSS VL: QIVLTQSPALMSASPGEKVTMTCSASSSVSYIYWYQQKPRSSPKPWIYLTSNLASGVPARFSGSGSGASYSLTISIMEAEDAATYYCQQWKSIPLTFGAGTKLELK", "values": [{"measurement": "Affinity", "setting": "soluble ICAM-R", "result": "Low (50% maximal binding at a monoclonal antibody concentration of greater than 1 μg/ml)"}, {"measurement": "Blockade of Adhesion of JY Cells to Soluble ICAM-R", "setting": "[1]", "result": "YES"}, {"measurement": "Inhibition (%) of total CD18-dependent binding", "setting": "[1]", "result": 45, "unit": "%"}, {"measurement": "PBMC activation marker expression after 1 day", "setting": "PBMC", "result": "Expression of CD69 and the transferrin receptor but not the IL-2 receptor increased"}, {"measurement": "PBMC activation marker expression after 3 days", "setting": "PBMC", "result": "increased levels of cell surface expression of both the transferrin receptor and IL-2 receptor but not CD69"}, {"measurement": "Blockade of Lymphocyte Activation SEA", "setting": "human PBL", "result": "YES"}, {"measurement": "proliferation in response to SEA, plate-bound antibody", "setting": "human PBL", "result": "significantly inhibited proliferation"}, {"measurement": "IC50", "setting": "human PBL; from logistic dose response curves, proliferation versus control antibodies", "result": 63, "unit": "µg/mL"}, {"measurement": "IL-8 level at 18 hours over the level at the 8 hour time point", "setting": "Monocytes", "result": "ten times"}, {"measurement": "tyrosine phosphorylation in response to G19-4 after pretreatment", "setting": "resting PBLs", "result": "there was an induction of tyrosine phosphorylation in response to G19-4 treatment"}]}]}
